In this data set the test system is Escherichia coli TOP10. Kind of data set: shrunken log2 fold change of peptide-encoding DNA abundance (4.5 h post-induction vs induction); higher = less antimicrobial activity (less host growth inhibition). To be noted: time post-induction: 4.5 h; library: site-saturation at positions 5, 18, 19, 20.
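Further: peptides expressed intracellularly from a pBAD plasmid library in pooled LB shake-flask culture, induced with 0.3% L-arabinose, DNA abundance read by NGS, three biological replicates, DESeq2 with apeglm shrinkage.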

As to RRIRSRPPRLPRPRPRPTDVPRP, the “shrunken log2 fold change” value came out at 0.0781.
The same measure for RRIRKRPPRLPRPRPRPDDVPRP: 2.03; for RRIRFRPPRLPRPRPRPVVTPRP: -0.756; for RRIRFRPPRLPRPRPRPPHSPRP: 0.386.
The same measure for RRIRYRPPRLPRPRPRPNSAPRP: -0.805; for RRIRARPPRLPRPRPRPFNSPRP: -0.0353; for RRIRHRPPRLPRPRPRPVRFPRP: 0.106.
The result for RRIRERPPRLPRPRPRPACGPRP reads 0.14.
Take RRIRCRPPRLPRPRPRPHCMPRP: the “shrunken log2 fold change” value was -0.517.
On to RRIRSRPPRLPRPRPRPDWFPRP, for which the “shrunken log2 fold change” value was found to be 0.0986.
With RRIRQRPPRLPRPRPRPDDHPRP, the “shrunken log2 fold change” value is -0.00211.
As for RRIRTRPPRLPRPRPRPERIPRP, the “shrunken log2 fold change” value was -0.18.
The same measure for RRIRPRPPRLPRPRPRPPWFPRP: 0.32; for RRIRSRPPRLPRPRPRPKALPRP: 0.175.
The result for RRIRGRPPRLPRPRPRPLGVPRP reads 0.835.
Take RRIRTRPPRLPRPRPRPLHPPRP: the “shrunken log2 fold change” value came to 0.375.
The result for RRIRWRPPRLPRPRPRPMVSPRP reads -0.0339.
The same measure for RRIRRRPPRLPRPRPRPFITPRP: -0.257; for RRIRMRPPRLPRPRPRPDSQPRP: 1.35.
The result for RRIRRRPPRLPRPRPRPHDFPRP reads 0.103; that for RRIRVRPPRLPRPRPRPHGSPRP, -0.156.
As for RRIRMRPPRLPRPRPRPWKMPRP, the “shrunken log2 fold change” value is 0.0322.
For the sequence RRIRMRPPRLPRPRPRPHGRPRP, the “shrunken log2 fold change” value is -0.0383.
In the case of RRIRYRPPRLPRPRPRPDALPRP, the “shrunken log2 fold change” value is -0.212.
The result for RRIRRRPPRLPRPRPRPVFHPRP reads 0.258; that for RRIRKRPPRLPRPRPRPPYHPRP, 0.0273.
As for RRIRHRPPRLPRPRPRPTHVPRP, the “shrunken log2 fold change” value came to 0.0105.
The same measure for RRIRERPPRLPRPRPRPCEYPRP: -0.0121; for RRIRMRPPRLPRPRPRPPHVPRP: 0.865.
The result for RRIRWRPPRLPRPRPRPGDFPRP reads 0.564.
The same measure for RRIRSRPPRLPRPRPRPWLVPRP: 0.0191; for RRIRQRPPRLPRPRPRPKEEPRP: 0.00489.
Regarding RRIRARPPRLPRPRPRPGIDPRP, the “shrunken log2 fold change” value was determined as 0.652.
In the case of RRIRERPPRLPRPRPRPVAKPRP, the “shrunken log2 fold change” value was 0.197.
The same measure for RRIRMRPPRLPRPRPRPSKTPRP: 0.00519.
The result for RRIRLRPPRLPRPRPRPTNGPRP reads 0.129.
The result for RRIRSRPPRLPRPRPRPRAMPRP reads 0.107; that for RRIRVRPPRLPRPRPRPHQAPRP, 0.0697; that for RRIRIRPPRLPRPRPRPFDEPRP, -0.288.
For the sequence RRIRRRPPRLPRPRPRPHYRPRP, the “shrunken log2 fold change” value is -0.306.
The result for RRIRCRPPRLPRPRPRPHEFPRP reads -0.267; that for RRIRERPPRLPRPRPRPLTNPRP, -0.242; that for RRIRNRPPRLPRPRPRPRRRPRP, 0.558.
The result for RRIRPRPPRLPRPRPRPGFGPRP reads 0.752.
The same measure for RRIRRRPPRLPRPRPRPLSSPRP: 0.234; for RRIRLRPPRLPRPRPRPIRVPRP: 0.101; for RRIRARPPRLPRPRPRPGLQPRP: 0.577.
As to RRIRGRPPRLPRPRPRPCCYPRP, the “shrunken log2 fold change” value came to 0.786.
The result for RRIRCRPPRLPRPRPRPLEGPRP reads 0.15; that for RRIRNRPPRLPRPRPRPRYAPRP, -0.0268; that for RRIRWRPPRLPRPRPRPMYSPRP, -0.612.
The same measure for RRIRYRPPRLPRPRPRPPKYPRP: -0.97; for RRIRLRPPRLPRPRPRPIVSPRP: -0.0372.
For RRIRYRPPRLPRPRPRPPDGPRP, the “shrunken log2 fold change” value was determined as 0.176.
The same measure for RRIRTRPPRLPRPRPRPPGCPRP: 0.528; for RRIRHRPPRLPRPRPRPAEGPRP: -0.00235; for RRIRRRPPRLPRPRPRPTQTPRP: 0.338.
The result for RRIRLRPPRLPRPRPRPFWPPRP reads 0.184.
As for RRIRYRPPRLPRPRPRPNYCPRP, the “shrunken log2 fold change” value was -1.16.
Consider RRIRIRPPRLPRPRPRPHRKPRP, for which the “shrunken log2 fold change” value was -0.551.
For the sequence RRIRIRPPRLPRPRPRPRGHPRP, the “shrunken log2 fold change” value is -0.114.
The same measure for RRIRSRPPRLPRPRPRPCRSPRP: -0.0435; for RRIRYRPPRLPRPRPRPISLPRP: -0.333; for RRIRARPPRLPRPRPRPPCLPRP: 0.224.
The result for RRIRDRPPRLPRPRPRPQGDPRP reads 0.0878.
The result for RRIRCRPPRLPRPRPRPIKVPRP reads -0.000403; that for RRIRDRPPRLPRPRPRPMKPPRP, 0.0123.
Turning to RRIRARPPRLPRPRPRPAGHPRP, the “shrunken log2 fold change” value stood at 0.398.
The same measure for RRIRDRPPRLPRPRPRPFPWPRP: -0.192.
The same measure for RRIRWRPPRLPRPRPRPSFTPRP: -0.397; for RRIRQRPPRLPRPRPRPPDIPRP: -0.0497.
With RRIRHRPPRLPRPRPRPRKVPRP, the “shrunken log2 fold change” value is -0.0134.
The same measure for RRIRARPPRLPRPRPRPYGVPRP: -0.12; for RRIRYRPPRLPRPRPRPPWTPRP: -0.343; for RRIRMRPPRLPRPRPRPNTRPRP: 0.371.
The result for RRIRSRPPRLPRPRPRPWTEPRP reads -0.314.
The result for RRIRHRPPRLPRPRPRPMCFPRP reads -0.574.
For the sequence RRIRDRPPRLPRPRPRPNLNPRP, the “shrunken log2 fold change” value is -0.229.
As for RRIRERPPRLPRPRPRPSIWPRP, the “shrunken log2 fold change” value is -0.0411.
The result for RRIRARPPRLPRPRPRPKRDPRP reads 0.135; that for RRIRPRPPRLPRPRPRPYWHPRP, -0.405; that for RRIRVRPPRLPRPRPRPDYAPRP, -0.0204.
The result for RRIRERPPRLPRPRPRPDMWPRP reads -0.0874; that for RRIRFRPPRLPRPRPRPNAWPRP, -0.171.
Regarding RRIRIRPPRLPRPRPRPGIPPRP, the “shrunken log2 fold change” value is -0.225.
The same measure for RRIRCRPPRLPRPRPRPAKMPRP: 0.104; for RRIRCRPPRLPRPRPRPWVPPRP: -0.423.
The same measure for RRIRWRPPRLPRPRPRPDVIPRP: -0.118; for RRIRKRPPRLPRPRPRPFNYPRP: -0.463.
For the sequence RRIRKRPPRLPRPRPRPKITPRP, the “shrunken log2 fold change” value was 0.0975.
Regarding RRIRTRPPRLPRPRPRPPGPPRP, the “shrunken log2 fold change” value turned out to be 0.53.
Take RRIRPRPPRLPRPRPRPVERPRP: the “shrunken log2 fold change” value stood at 0.289.
The same measure for RRIRWRPPRLPRPRPRPSTYPRP: -0.0575.
The result for RRIRMRPPRLPRPRPRPYDTPRP reads -0.171; that for RRIRSRPPRLPRPRPRPGRPPRP, 0.245; that for RRIRERPPRLPRPRPRPNFSPRP, -0.114.
The same measure for RRIRQRPPRLPRPRPRPPPSPRP: 0.731; for RRIRSRPPRLPRPRPRPKEDPRP: 1.6; for RRIRDRPPRLPRPRPRPRSVPRP: 0.165.
In the case of RRIRWRPPRLPRPRPRPHKWPRP, the “shrunken log2 fold change” value amounted to 0.18.
The same measure for RRIRMRPPRLPRPRPRPGAQPRP: 1.24; for RRIRSRPPRLPRPRPRPCCMPRP: -0.0571; for RRIRSRPPRLPRPRPRPINYPRP: -0.336.
The result for RRIRERPPRLPRPRPRPASDPRP reads -0.105; that for RRIRWRPPRLPRPRPRPICGPRP, 0.0975; that for RRIRPRPPRLPRPRPRPPGIPRP, 0.151.
RRIRTRPPRLPRPRPRPSMIPRP: the “shrunken log2 fold change” value is -0.527.
The result for RRIRTRPPRLPRPRPRPKETPRP reads 0.137.
Regarding RRIRGRPPRLPRPRPRPLMMPRP, the “shrunken log2 fold change” value was 0.647.
The result for RRIRQRPPRLPRPRPRPHCMPRP reads -0.0175; that for RRIRWRPPRLPRPRPRPNRSPRP, -0.0777.
The same measure for RRIRCRPPRLPRPRPRPTQMPRP: 0.565; for RRIRSRPPRLPRPRPRPMCQPRP: -0.0136.
The result for RRIRMRPPRLPRPRPRPDRNPRP reads 1.4; that for RRIRIRPPRLPRPRPRPMTEPRP, 0.0149.
As to RRIRHRPPRLPRPRPRPHLKPRP, the “shrunken log2 fold change” value was -0.124.
The result for RRIRYRPPRLPRPRPRPSYNPRP reads -0.676; that for RRIRFRPPRLPRPRPRPIEFPRP, 0.0129; that for RRIRWRPPRLPRPRPRPYGEPRP, -0.0723.
The result for RRIRARPPRLPRPRPRPADGPRP reads 0.258; that for RRIRIRPPRLPRPRPRPMAWPRP, 0.0272; that for RRIRWRPPRLPRPRPRPFWPPRP, 0.161.
The result for RRIRMRPPRLPRPRPRPHWIPRP reads -0.0869.
As for RRIRSRPPRLPRPRPRPQMCPRP, the “shrunken log2 fold change” value was -0.724.
For RRIRARPPRLPRPRPRPQMRPRP, the “shrunken log2 fold change” value was determined as 0.62.

(Values after the supplement of paper PMC9112550, “Optimization of the antimicrobial peptide Bac7 by deep mutational scanning” (BMC Biology, 2022).)
